T1: Livin-β (UniProt Q96CA5-2 1-280, limits assumed)
T1 construct: the beta isoform is meant; also called Livin (beta)
T1 sequence (looked up): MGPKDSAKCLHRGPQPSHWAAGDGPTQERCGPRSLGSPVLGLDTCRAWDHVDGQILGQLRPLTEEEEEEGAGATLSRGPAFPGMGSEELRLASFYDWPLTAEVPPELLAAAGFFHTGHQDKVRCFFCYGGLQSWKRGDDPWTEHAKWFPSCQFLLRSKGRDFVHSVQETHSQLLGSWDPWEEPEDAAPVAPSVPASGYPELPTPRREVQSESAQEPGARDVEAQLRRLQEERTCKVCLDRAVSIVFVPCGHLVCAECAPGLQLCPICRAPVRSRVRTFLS

B1: peptide number 16 (peptide, not shown: large carriers)
chain: GPHSSAHDRIWLRVRGLRIILLVLRSAEIYES
notes: that construct is not described for linear peptides
B2: peptide number 15 (peptide, not shown: large carriers)
chain: GSGCGCFVRGRIVRIRCVILLLRVLRSAEIYES
notes: as for B1
B3: peptide number 65 (peptide, not shown: large carriers)
chain: GAGLGRVIRLRIVVLRCIFLLFRVLRSAEIYES
notes: as for B1
B4: peptide number 69 (peptide, not shown: large carriers)
chain: GPFPFDYPRWIMIVLLRGVLRSAEIYES
notes: as for B1
B5: peptide number 7 (peptide, not shown: large carriers)
chain: GPFKRCHERLVAFARCWFMWSMVLRSAEIYES
notes: as for B1
B6: peptide number 5 (peptide, not shown: large carriers)
chain: GSRFRVFVCSLFSFLSGRGGGVVVLRSAEIYES
notes: as for B1
B7: peptide number 77 (peptide, not shown: large carriers)
chain: GPFSEHARGHVVTICRLRLLFWLLRSAEIYES
notes: as for B1
B8: peptide number 90 (peptide, not shown: large carriers)
chain: GPYPYLRILLVQKIACVRRALWVLRSAEIYES
notes: as for B1
B9: peptide number 75 (peptide, not shown: large carriers)
chain: GSRCIRRRISILFFVFRVLRSRRVLRSAEIYES
notes: as for B1
B10: peptide number 54 (peptide, not shown: large carriers)
chain: GPWWKDRGVLVRLCVLRLVVGVVLRSAEIYES
notes: Mammalian two-hybrid construct not described for linear peptides
B11: peptide number 40 (peptide, not shown: large carriers)
chain: GSGCVRIRVGIVRRMLFLRFVFLVP
notes: as for B1

What follows are binders tested against T1, Livin-β (assay: yeast two-hybrid).

binding result | Binder
binds | B1
binds | B2
binds | B3
binds | B4
binds | B5
binds | B6
binds | B7
binds | B8
binds | B9
binds | B10

Each binder was assayed against T2, c-IAP-2 (UniProt Q13489 1-604, limits assumed) (assay: yeast two-hybrid).
T2 construct: construct not described; also called c-LAP-2
T2 sequence (Q13489 whole entry): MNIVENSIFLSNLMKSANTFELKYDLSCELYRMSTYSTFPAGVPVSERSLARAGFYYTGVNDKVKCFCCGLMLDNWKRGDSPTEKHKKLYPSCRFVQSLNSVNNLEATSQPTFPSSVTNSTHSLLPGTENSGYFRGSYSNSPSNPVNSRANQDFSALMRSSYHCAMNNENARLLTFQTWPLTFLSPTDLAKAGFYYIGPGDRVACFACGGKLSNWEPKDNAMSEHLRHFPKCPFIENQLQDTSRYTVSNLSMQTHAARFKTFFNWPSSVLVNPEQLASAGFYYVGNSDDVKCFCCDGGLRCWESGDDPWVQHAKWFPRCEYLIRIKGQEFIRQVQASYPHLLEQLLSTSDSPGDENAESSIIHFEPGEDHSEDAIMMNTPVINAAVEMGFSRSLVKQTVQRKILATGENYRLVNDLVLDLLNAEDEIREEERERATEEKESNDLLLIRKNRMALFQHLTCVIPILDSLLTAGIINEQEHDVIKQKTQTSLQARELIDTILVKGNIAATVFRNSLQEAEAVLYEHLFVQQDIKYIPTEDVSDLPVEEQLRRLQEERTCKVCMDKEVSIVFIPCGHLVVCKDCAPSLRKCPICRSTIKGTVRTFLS

binding result | Binder
no binding | B1
no binding | B2
no binding | B3
no binding | B4
no binding | B5
no binding | B11
no binding | B6
no binding | B7
no binding | B8
no binding | B9
no binding | B10

These binders were tested against T3, XIAP (UniProt P98170 1-497, limits assumed) (assay: yeast two-hybrid).
T3 construct: construct not described
T3 sequence (P98170 whole entry): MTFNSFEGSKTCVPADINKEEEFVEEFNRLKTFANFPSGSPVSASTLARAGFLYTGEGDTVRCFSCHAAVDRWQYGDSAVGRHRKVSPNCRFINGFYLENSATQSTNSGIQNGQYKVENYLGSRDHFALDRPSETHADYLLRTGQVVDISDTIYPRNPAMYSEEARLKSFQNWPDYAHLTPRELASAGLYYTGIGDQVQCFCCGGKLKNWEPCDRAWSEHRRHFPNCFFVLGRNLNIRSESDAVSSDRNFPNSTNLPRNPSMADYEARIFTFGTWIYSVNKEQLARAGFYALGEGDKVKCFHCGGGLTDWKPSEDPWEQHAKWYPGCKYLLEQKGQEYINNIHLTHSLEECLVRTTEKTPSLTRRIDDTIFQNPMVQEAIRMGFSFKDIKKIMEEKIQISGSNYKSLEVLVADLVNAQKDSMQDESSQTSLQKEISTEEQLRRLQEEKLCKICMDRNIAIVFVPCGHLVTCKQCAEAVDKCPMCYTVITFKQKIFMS

binding result | Binder
no binding | B1
no binding | B2
no binding | B3
no binding | B4
no binding | B5
no binding | B11
no binding | B6
binds | B7
no binding | B8
no binding | B9
no binding | B10

The binders below were run against T4, Survivin (UniProt O15392 1-142) (assay: yeast two-hybrid).
T4 construct: construct not described; also called surivin
T4 sequence (O15392 whole entry): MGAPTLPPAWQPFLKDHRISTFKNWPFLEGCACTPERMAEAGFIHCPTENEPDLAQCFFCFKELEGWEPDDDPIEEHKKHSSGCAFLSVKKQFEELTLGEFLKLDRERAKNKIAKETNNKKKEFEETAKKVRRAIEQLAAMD

Binder | binding result
B1 | no binding
B2 | no binding
B3 | no binding
B4 | no binding
B5 | no binding
B11 | no binding
B6 | no binding
B7 | no binding
B8 | no binding
B9 | no binding
B10 | no binding

Each binder was assayed against T5, c-IAP-1 (UniProt Q13490 1-618, limits assumed) (assay: yeast two-hybrid).
T5 construct: construct not described
T5 sequence (Q13490 whole entry): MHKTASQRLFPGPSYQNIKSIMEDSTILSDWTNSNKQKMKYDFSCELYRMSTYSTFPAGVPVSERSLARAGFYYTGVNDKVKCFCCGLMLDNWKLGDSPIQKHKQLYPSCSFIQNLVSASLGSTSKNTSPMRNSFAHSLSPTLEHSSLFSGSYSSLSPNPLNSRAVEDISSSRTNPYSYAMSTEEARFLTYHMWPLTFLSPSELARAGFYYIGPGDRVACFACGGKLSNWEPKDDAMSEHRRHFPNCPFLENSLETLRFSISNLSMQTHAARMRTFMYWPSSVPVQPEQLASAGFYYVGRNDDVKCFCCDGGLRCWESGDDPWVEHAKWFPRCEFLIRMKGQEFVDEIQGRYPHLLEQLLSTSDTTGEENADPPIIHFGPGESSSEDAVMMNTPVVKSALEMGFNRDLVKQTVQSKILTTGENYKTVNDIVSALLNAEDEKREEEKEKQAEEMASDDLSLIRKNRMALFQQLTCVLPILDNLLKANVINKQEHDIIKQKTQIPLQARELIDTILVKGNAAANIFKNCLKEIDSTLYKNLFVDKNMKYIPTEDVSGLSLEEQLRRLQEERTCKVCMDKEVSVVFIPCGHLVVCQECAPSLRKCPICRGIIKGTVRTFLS

binding result | Binder
no binding | B1
no binding | B2
no binding | B3
no binding | B4
no binding | B5
no binding | B11
no binding | B6
no binding | B7
no binding | B8
no binding | B9
no binding | B10

— patent US20050203288A1 (DEUTSCHES KREBSFORSCHUNGSZENTRUM STIFUNG DES OFFENTLICHEN …, published 2005)
